In US7930107:

Columns and labels:
[1] = target: GST-fused human V158 FcγRIIIa (extracellular region) (human) (UniProt P08637); assay: SPR, GST-FcγRIIIa V158 on chip
[2] = target: GST-fused human V158 FcγRIIIa (extracellular region) (human) (UniProt P08637); assay: AlphaScreen competition with biotinylated WT AC10

Chain of GST-fused human V158 FcγRIIIa (extracellular region) (human) (P08637 17-208 F176V): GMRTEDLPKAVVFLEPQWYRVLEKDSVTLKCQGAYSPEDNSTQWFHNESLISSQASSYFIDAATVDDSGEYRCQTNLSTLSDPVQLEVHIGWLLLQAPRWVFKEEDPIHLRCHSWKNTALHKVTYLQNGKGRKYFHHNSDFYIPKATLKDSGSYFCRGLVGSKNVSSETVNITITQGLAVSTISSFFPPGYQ

- Kd [1]: 0.0186 µM
- IC50 [2]: 0.0872 µM
Substance: WT AC10 antibody (L0/H0)
